Experimental findings from patent US20180334496A1 (KODIAK SCIENCES, published 2018) are described below.

Positions count from the first letter of the chain named. Where “and” joins values, the source holds several entries; their conditions need not be identical. Identical values can stand only once.

To fix the notation:
B1: KCD119 (antibody, V domains shown)
VH: EVQLQQSGPELVKPGASVKISCKASGYTFTDYYTNWMRQRHGESLEWIGDINPNTGDTSYNQKFRVKATLTVDKSSGTAYMGLRSLTSEDSAVYYCTREGPSFAYWGQGTLVTVSA
VL: DVLMTQTPLSLPVSLGDQASISCRSSQTIVHSNGDTYLEWYLQKPGQSPNLLIYKVSNRFSGVPDRFSGSGSGTDFTLKISRVEAEDLGVYYCFQGSHVPPTFGGGTTLEIK
notes: chimeric; also called Mouse KCD119
B2: KCD124 (antibody, V domains shown)
VH: EVQLQQSGPELVKPGASVKISCKASGYTFTDHYMNWVKQSHGKSLEWIGDINPNNGGTSYNQKFKGKATLTVDKSSSTAYMELRSLTSGDSAVYYCTREGASFAFWGQGTLVTVSA
VL: B1 VL with T28S, N50K, P101L, G105A, T108K, I111L
notes: chimeric
B3: KCD042 (antibody, V domains shown)
VH: EVQLQQSGAELVKPGASVRLSCTASGFNIKHTYIHWVSQRPEQGLEWIGKIDPANGNTKYDPKFQGKATITADTSSNTAYLQLSSLTSEDTAVYYCVNAMEYWGQGTSVTVSS
VL: QSVLTQSPAIMSASPGEKVTMTCSANSSVSDMYWFQQRPGSSPRLLIYDTSNLASGVPVRFSGSGSGTSYSLTISRMEAEDAATYYCQQWSTYPWTFGGGTKLEIK
notes: chimeric
B4: KCD119 TAF (antibody, V domains shown)
VH: EVQLVESGGGLVQPGGSLRLSCAASGYTFTDYYMNWVRQAPGKGLEWIGDINPNTGDTSYNADFKRRFTFSLDTSKSTAYLQMNSLRAEDTAVYYCTREGPSFAYWGQGTLVTVSS
VL: DIQLTQSPSSLSASVGDRVTITCRSSQTIVHSNGDTYLEWYQQKPGKAPNLLIYKVSNRFSGVPSRFSGSGSGTDFTLTISSLQPEDFATYYCFQGSHVPPTFGQGTKVEIK
B5: 31S34I54V59D84S/54R101V (SEQ ID NO: 184) (antibody, V domains shown)
VH: B4 VH with D31S, M34I, N54V, S59D, N84S
VL: DIQLTQSPSSLSASVGDRVTITCRSSQTIVHSNGDTYLEWYQQKPGKAPNLLIRKVSNRFSGVPSRFSGSGSGTDFTLTISSLQPEDFATYYCFQGSHVPVTFGQGTKVEIKR
B6: 34I54V59D84S/54R101V (SEQ ID NO: 184) (antibody, V domains shown)
VH: B4 VH with M34I, N54V, S59D, N84S
VL: B5 VL
B7: Mouse KCD119 (antibody, V domains shown)
VH: B1 VH
VL: B1 VL
B8: 34I54I59D84S / 54G101V (antibody, V domains shown)
VH: B4 VH with M34I, N54I, S59D, N84S
VL: B4 VL with Y54G, P101V
notes: also called 34I54I59D845 / 54G101V
B9: 31S34I54I59D84S / 54R101V (antibody, V domains shown)
VH: B4 VH with D31S, M34I, N54I, S59D, N84S
VL: B5 VL
notes: KCD119 TAF variant; also called 3I534I54I59D84S / 54R101V
B10: 31S34I54I59D84S / 54G101V (antibody, V domains shown)
VH: B4 VH with D31S, M34I, N54I, S59D, N84S
VL: B4 VL with Y54G, P101V
notes: KCD119 TAF variant; full antibody captured on protein A; also called 31S34I54I59D845 / 54G101V; 3I534I54I59D84S / 54G101V
B11: 34I54I59D / 54R101V (antibody, V domains shown)
VH: B4 VH with M34I, N54I, S59D
VL: B5 VL
notes: KCD119 TAF variant
B12: 54I59D / 54R101V (antibody, V domains shown)
VH: B4 VH with N54I, S59D
VL: B5 VL
notes: KCD119 TAF variant
B13: 31S34I54I59D / 54R101V (antibody, V domains shown)
VH: B4 VH with D31S, M34I, N54I, S59D
VL: B5 VL
notes: KCD119 TAF variant

T1 sequence (P00746 26-253): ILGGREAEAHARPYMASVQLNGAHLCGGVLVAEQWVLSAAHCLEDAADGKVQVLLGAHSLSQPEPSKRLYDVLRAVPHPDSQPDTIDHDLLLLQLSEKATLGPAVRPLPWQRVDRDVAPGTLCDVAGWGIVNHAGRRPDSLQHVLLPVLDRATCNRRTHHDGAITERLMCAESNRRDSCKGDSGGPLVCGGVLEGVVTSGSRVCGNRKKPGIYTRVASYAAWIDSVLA
Sequence of human Complement Factor D (serum purified) (P00746 26-253): as above

One experiment concerns the target T1, human complement factor D purified from serum (human, UniProt P00746 26-253).
T1 construct: serum-purified (CompTech); also called hCFD-Comptech; CFD
Assay: not given
B1 displayed an equilibrium dissociation constant (Kd) of 35.8 pM.
B2: binding was put at a Kd of 780 pM.

In a further experiment the target is T1, human complement factor D purified from ….
Assay: not given
The source holds these as a separate data set.
For the molecule B3, the equilibrium dissociation constant (Kd) stood at 1090 pM.

The target of a further experiment is T2, recombinant human CFD mutant 1 (R157A, R207A), His-tagged (human, UniProt P00746 26-253).
T2 construct: positions are linear positions in the mature protein; also called rhCFD-mut1-His; Mut1
T2 sequence (P00746 26-253 R182A/R232A limits assumed): as the sequence (P00746 26-253) above, with R157A, R207A counted along it
Put plainly: ELISA. On the technique in general: In an ELISA, binding on a coated surface is turned into a signal by an enzyme label.
As for B3, the “Mut1 Binding (% wt)” value stood at 65.6 % wt.

A further experiment concerns the target human Complement Factor D (serum purified) (human, UniProt P00746 26-253). Put plainly: cell-based or functional assay.
Consider B4, for which the “% no ab control, CFD enzymatic activity on Z-L-Lys-SBzl” value (“% no ab control” below) was found to be 19.6 % no ab control and the “Vmax (OD/sec), CFD enzymatic activity on Z-L-Lys-SBzl” value (from here on “Vmax (OD/sec), CFD enzymatic activity”) is 0.408 OD/sec.
In the case of B5, the “% no ab control” value is 28.6 % no ab control and the “Vmax (OD/sec), CFD enzymatic activity” value was determined as 0.596 OD/sec.
Take B6: the “% no ab control” value came out at 23.3 % no ab control and the “Vmax (OD/sec), CFD enzymatic activity” value turned out to be 0.486 OD/sec.
Turning to B7, the “% no ab control” value was 15.3 % no ab control and the “Vmax (OD/sec), CFD enzymatic activity” value turned out to be 0.318 OD/sec.

A further experiment has as its target T1, human complement factor D purified from …. Put plainly: cell-based or functional assay.
For the molecule B1, the “CFD Enzymatic activity (% of Neg Ctrl)” value was 15.7 % of Neg Ctrl.
Take B2: the “CFD Enzymatic activity (% of Neg Ctrl)” value is 19.7 % of Neg Ctrl.

The target in a further experiment is T3, serum purified human Complement Factor D (human, UniProt P00746 26-253).
T3 construct: Serum purified protein flowed over the captured antibodies; also called CFD; human CFD
T3 sequence (P00746 26-253): as the sequence (P00746 26-253) above
Put plainly: SPR Biacore, antibody on protein A chip, single cycle kinetics, 37 C. Background: In SPR one partner is held on a chip, and binding of the other changes the refractive index at the surface.
The molecule B8 displayed a Kd of 7.74 pM, an off-rate constant (koff) of 0.000112 s⁻¹ and a kon of 1.45e+07 M⁻¹ s⁻¹.
On to B9, for which the dissociation constant (Kd) came to 3.92 pM, the koff is 0.000137 s⁻¹ and the kon was 3.5e+07 M⁻¹ s⁻¹.
On the same counts, the results for B10 are 6.11 pM, 7.36e-05 s⁻¹ and 1.21e+07 M⁻¹ s⁻¹.

The next experiment has as its target T2, recombinant human CFD mutant 1 (R157A, …). Kind of experiment: ELISA. The source holds these as a separate data set.
On to B2, for which the “Mut1 Binding (% wt)” value is -0.643 % wt.

In a further experiment the target is T1, human complement factor D purified from …. Kind of experiment: cell-based or functional assay. This is another data set of the same source.
On to B3, for which the “CFD Enzymatic activity (% of Neg Ctrl)” value was 6.8 % of Neg Ctrl.

Another experiment has as its target T3, serum purified human Complement Factor D. Put plainly: SPR Biacore, antibody on protein A chip, single cycle kinetics, 25 C.
With B8, the dissociation constant Kd is 6.83 pM, the dissociation rate constant (koff) turned out to be 5.18e-05 s⁻¹ and the on-rate (kon) came to 7.59e+06 M⁻¹ s⁻¹.
B9 gave a dissociation constant Kd below 0.602 pM, a koff below 1e-05 s⁻¹ and a kon of 1.66e+07 M⁻¹ s⁻¹.
Take B10: the association rate constant (kon) worked out at 4.42e+06 M⁻¹ s⁻¹.

Another experiment has the same target. Kind of experiment: SPR Biacore, antibody on protein A chip, single cycle kinetics, 37 C. The source holds these as a separate data set.
Consider B8, for which the Kd worked out at 7.74 pM, the koff was 0.000112 s⁻¹ and the kon came to 1.45e+07 M⁻¹ s⁻¹.
For the molecule B9, binding was put at a Kd of 3.92 pM, the koff amounted to 0.000137 s⁻¹ and the association rate constant (kon) was 3.5e+07 M⁻¹ s⁻¹.
In the case of B10, the affinity, expressed as Kd, was 6.11 pM; the koff came out at 7.36e-05 s⁻¹; the association rate constant (kon) worked out at 1.21e+07 M⁻¹ s⁻¹.
B11 gave a Kd of 8.08 pM, a dissociation rate constant (koff) of 0.000264 s⁻¹ and an on-rate (kon) of 3.27e+07 M⁻¹ s⁻¹.
In the case of B12, the dissociation constant (Kd) was 7.1 pM and 5.43 pM and 6.63 pM and 7.92 pM; the off-rate constant (koff) is 0.000187 s⁻¹ and 0.000257 s⁻¹ and 0.000205 s⁻¹ and 0.0003 s⁻¹; the kon was 2.64e+07 M⁻¹ s⁻¹ and 4.74e+07 M⁻¹ s⁻¹ and 3.09e+07 M⁻¹ s⁻¹ and 3.78e+07 M⁻¹ s⁻¹.
B13: the dissociation constant Kd was 5.83 pM and 9.61 pM; the dissociation rate constant (koff) was 0.000157 s⁻¹ and 0.000237 s⁻¹; the kon was 2.69e+07 M⁻¹ s⁻¹ and 2.46e+07 M⁻¹ s⁻¹.

A further experiment has the same target. Put plainly: SPR Biacore, antibody on protein A chip, single cycle kinetics, 25 C. The source holds these as a separate data set.
As for B8, binding was put at a Kd of 6.83 pM, the koff worked out at 5.18e-05 s⁻¹ and the kon came out at 7.59e+06 M⁻¹ s⁻¹.
On to B9, for which the Kd is below 0.602 pM, the koff is below 1e-05 s⁻¹ and the kon was determined as 1.66e+07 M⁻¹ s⁻¹.
Take B10: the on-rate constant (kon) is 4.42e+06 M⁻¹ s⁻¹.
The molecule B11 returned an equilibrium dissociation constant (Kd) of 5.62 pM, a koff of 0.000101 s⁻¹ and an on-rate (kon) of 1.8e+07 M⁻¹ s⁻¹.
On to B12, for which the dissociation constant Kd was 6.42 pM and 2.94 pM and 5.72 pM and 5.23 pM; the koff was 7.04e-05 s⁻¹ and 5.95e-05 s⁻¹ and 9.8e-05 s⁻¹ and 9.5e-05 s⁻¹; the kon was 1.1e+07 M⁻¹ s⁻¹ and 2.02e+07 M⁻¹ s⁻¹ and 1.71e+07 M⁻¹ s⁻¹ and 1.82e+07 M⁻¹ s⁻¹.
Turning to B13, the Kd is 7.6 pM and 5.96 pM; the off-rate constant (koff) was 0.000106 s⁻¹ and 7.84e-05 s⁻¹; the kon is 1.39e+07 M⁻¹ s⁻¹ and 1.32e+07 M⁻¹ s⁻¹.

In another experiment the target is T4, recombinant human CFD, His-tagged (human, UniProt P00746 26-253).
T4 construct: also called rhCFD-His
T4 sequence (P00746 26-253 limits assumed): as the sequence (P00746 26-253) above
Put plainly: SPR MX96.
Regarding B3, the Kd is 1000 pM.
In the case of B1, the Kd is 280 pM and 560 pM.
Consider B2, for which the Kd came to 3300 pM.

A further experiment addresses T2, recombinant human CFD mutant 1 (R157A, …). Put plainly: SPR MX96.
In the case of B3, the Kd turned out to be 420 pM.

The target of another experiment is T1, human complement factor D purified from …. Put plainly: SPR MX96.
For the molecule B3, the affinity, expressed as Kd, was 1400 pM.
For B1, the Kd is 370 pM and 860 pM.
For B2, the dissociation constant (Kd) was 4300 pM.

The next experiment concerns the target T5, recombinant cynomolgus CFD, His-tagged (cynomolgus).
T5 construct: also called rcyCFD-His; recombinant Cyno-CFD
Kind of experiment: SPR MX96.
For the molecule B3, the equilibrium dissociation constant (Kd) came to 3000 pM.
B1: the Kd is 700 pM and 1100 pM.
Regarding B2, the dissociation constant (Kd) is 5200 pM.

Another experiment concerns the target T3, serum purified human Complement Factor D. Kind of experiment: SPR Biacore, 37 C.
As for B11, the Kd came to 8.08 pM, the koff turned out to be 0.000264 s⁻¹ and the kon was determined as 3.27e+07 M⁻¹ s⁻¹.
The molecule B12 displayed a Kd of 6.63 pM, a koff of 0.000205 s⁻¹ and a kon of 3.09e+07 M⁻¹ s⁻¹.
In turn, B13 registered a Kd of 9.61 pM, a dissociation rate constant (koff) of 0.000237 s⁻¹ and a kon of 2.46e+07 M⁻¹ s⁻¹.

A further experiment has the same target. Put plainly: SPR Biacore, 25 C.
As for B11, the affinity, expressed as Kd, was 5.62 pM; the dissociation rate constant (koff) was 0.000101 s⁻¹; the kon worked out at 1.8e+07 M⁻¹ s⁻¹.
Consider B12, for which the Kd was determined as 5.72 pM, the dissociation rate constant (koff) amounted to 9.8e-05 s⁻¹ and the kon turned out to be 1.71e+07 M⁻¹ s⁻¹.
On the same counts, the results for B13 are 5.96 pM, 7.84e-05 s⁻¹ and 1.32e+07 M⁻¹ s⁻¹.

What is called Kd is a measure of binding affinity in units of concentration. As a reminder, the koff is a measure of how fast the partners let go of each other. A higher koff goes with a short-lived complex. What is called kon is a measure of how fast the partners come together.
